Our source for the Km and kcat/Km values is paper PMC5171882, “Metagenomic mining for thermostable esterolytic enzymes uncovers a new family of bacterial esterases” (Scientific Reports, 2016).

What all share (test): purified protein
Common to all, as to format: biochemical, uncultured Acetothermia bacterium
Holding throughout (details): standard reaction: 25 mM Tris-HCl pH 8, 0.05% Triton X-100, 50 °C

Substrate in series [1]: CC(=O)Oc1ccc([N+](=O)[O-])cc1
Substrate in series [2]: CCCC(=O)Oc1ccc([N+](=O)[O-])cc1
Substrate in series [3]: CCCCCCCC(=O)Oc1ccc([N+](=O)[O-])cc1
Substrate in series [4]: CCCCCCCCCC(=O)Oc1ccc([N+](=O)[O-])cc1

B1: EstDZ2 (uncultured Acetothermia bacterium) (protein)
chain: APPFSFQVYTDVVYYDGPDAHPTKHRLDLFVPDGLQDAPVLIFVHGGGWTSGDKNLYAFIGQAFAAQGFATAVINYRLSPQVQHPAHIEDVARAFSWVYKNIARYGGNPEKIFVTGHSAGGHLTALLALDEKYLQAHGLTLAAIKGAIPISGVYDVTPVLALYRTVFGADPDQRWDASPLAHVGPNKPPFLILYAQFDFPGLGLQAQQLFAELRTHNNEATLTEIPNRDHVTIVATIGASNDPTTEEI
notes: predicted signal peptide (aa 2-21) replaced by N-terminal hexa-histidine tag, kept; E. coli BL21(DE3); Ni-NTA; monomer, ~29 kDa; HGGG and GHSAG motifs; primer encodes APPFSF after His tag
B1: the Km is 670 ± 150 µM in the series “purified protein [1]”, 320 ± 90 µM in “purified protein [2]”, 200 ± 20 µM in “purified protein [3]” and 120 ± 10 µM in the series “purified protein [4]”. Besides, the kcat/Km in the series “purified protein [1]” was 1.76e+06 M⁻¹ s⁻¹; in the series “purified protein [2]”, 1.44e+07 M⁻¹ s⁻¹; in “purified protein [3]”, 1.04e+07 M⁻¹ s⁻¹; in the series “purified protein [4]”, 7.55e+06 M⁻¹ s⁻¹.

One may read the Km as the substrate concentration at which the rate is half of its maximum. By kcat/Km is commonly meant the second-order rate constant that governs catalysis at low substrate concentration.
